Results as given in PMC5718999.

Key:
[1] = target: genetically engineered calmodulin (CaM) with cysteine on N-terminus (UniProt P0DP23); experiment: atomic force microscopy (height of the immobilised protein pattern); CaM immobilised by cysteine-Hg-SH coupling on MUTMS patterns on OTS-coated silicon; soaked 10 min in 1 g mL^-1 CaM KI binding domain solution at 4 °C, rinsed with buffer; imaged in air, ac mode, 75% relative humidity, 25 °C; height from topography histograms
[2] = target: genetically engineered calmodulin (CaM) with cysteine on N-terminus (UniProt P0DP23); experiment: atomic force microscopy (height of the immobilised protein pattern); CaM immobilised by cysteine-Hg-SH coupling on MUTMS patterns on OTS-coated silicon; soaked 10 min in CaM KI binding domain solution at 4 °C, rinsed with buffer; imaged in air, ac mode, 75% relative humidity, 25 °C; height from topography histograms

- increase of the height of the CaM layer [1]: 11.3 Å
- apparent height above OTS of the KIBD-CaM pattern [2]: 4.2 nm
Substance: Calmodulin-dependent protein kinase I (299-320) binding domain (from UniProt Q63450 299-320) (peptide)
